In the DeepSol protein solubility set:

Assay: soluble on expression in E. coli; label from the status in PepcDB or PDB records

Row | Sequence | soluble on expression in E. coli
1 | MGSSHHHHHHSSGLVPRGSHMEFKVIAEYFDKLEKISSRLQLTALLADLLSKSDKTIIDKVVYIIQGKLWPDFLGYPELGIGEKFLIKAISIATNTDENSVENLYKTIGDLGEVARRLKSKQQSTGILGFLGTTSKESLTVDEVYSTLSKVALTTGEGSRDLKIRLLAGLLKKADPLEAKFLVRFVEGRLRVGIGDATVLDAMAIAFGGGQSASEIIERAYNLRADLGNIAKIIVEKGIEALKTLKPQVGIPIRPMLAERLSNPEEILKKMGGNAIVDYKYDGERAQIHKKEDKIFIFSRRLENITSQYPDVVDYVSKYIEGKEFIIEGEIVAIDPESGEMRPFQELMHRKRKSDIYEAIKEYPVNVFLFDLMYYEDVDYTTKPLEARRKLLESIVKPNDYVKIAHHIQANNVEDLKSFFYRAISEGGEGVMVKAIGKDAIYQAGARGWLWIKLKRDYQSEMADTVDLVVVGGFYGKGKRGGKISSLLMAAYNPKTDSFESVCKVASGFSDEQLDELQKKLMEIKRDVKHPRVNSKMEPDIWVEPVYVAEIIGSEITISPLHTCCQDVVEKDAGLSIRFPRFIRWRDDKSPEDATTTDEILEMYNKQPKKKIESPAVDESV | soluble
2 | MSEVQQLPIRAVGEYVILVSEPAQAGDEEVTESGLIIGKRVQGEVPELCVVHSVGPDVPEGFCEVGDLTSLPVGQIRNVPHPFVALGLKQPKEIKQKFVTCHYKAIPCLYK | soluble
3 | MSLADPADISAASRSVVRVVIIESDGDRANLITHGTGFAVTPNLIVTNAHVVEELRRDDTLIAGVVPAEGRNGFPAKLVAYSPGNDLALLRIEGGGSITPITLFPGAPGDGSEVYAVGYPGNVDLAQGLSMADLVTPQAAVKTRGYLSGGRSSRSFDTLLHTAPLGSGNSGGPLLDSCGRVIGVNSFGTVSDNSTDSAFYFAISMRELSAFLRRANVDAHTSGLPCRSIADLDRAEAERAAGEQARLAAQTAAQADAKQRAMDKARRDAELAILSERDNGEGHHHHHH | soluble
4 | MYIQILGSAAGGGFPQWNCNCVNCAGFRDGSLRAQARTQSSIALSDDGVNWVLCNASPDIRAQLQGFAPMQPGRALRDTGISAIVLMDSQIDHTTGLLSLREGCPHQVWCTDMVHEDLSTGFPLFEMLKHWNGGLNWNRIELQGSFVIPACPNLRFTPFPLRSAAPPYSPHRFDPHPGDNIGLLVEDTRTGGKLFYAPGLGKVDEALAEKMRDADCLLVDGTMWDDDEMQRRGVGTRTGREMGHLAQNGPGGMLDVLEGFPEQRKVLIHINNTNPILDEDSPERAELVRRNVEVAFDGMSIELLEHHHHHH | soluble
5 | MILKPIGVVKSPFKTQNDAPRQGRFSDAVSEIAIFDEYADGLHKIENLRHIIVLYWMDKASRDKLRVVPPGETEERGVFTTRSPSRPNPIGLCVVEILEVERNRLKVRWLDALDGSPVIDIKKYSPEIDCVNQLEGQQP | not soluble
6 | MIIYKDIFSNDELLSDAYDAKLVDDVIYEADCAMVNVGGDNIDIGANPSAEGGDDDVEEGAEMVNNVVHSFRLQQTAFDKKSFLTYIKGYMKAVKAKLQETNPEEVPKFEKGAQTYVKKVIGSFKDWEFFTGESMDPDAMVVMLNYREDGTTPFVAIWKHGIVEEKI | soluble
7 | MLNEFDQYLHERYLSGKARKDRWYWNNSIQRGRSTAVRENWQWKPAVAYCRYADDFVLIVKGTKAQAEAIREECRGVLEGSLKLRLNMDKTKITHVNDGFIFLGHRIIRKRSRYGEMRVVSTIPQEKARNFAASLTALLSGNYSESKVDMAEQLNRKLKGWAMFYQFVDFKAKVFSYIDRVVFWKLAHWLARKYRTGIASLMRWWCKSPKPGQSKTWVLFGKTNHGKLSGEILYRLVGQGKKLFRWRLPEGNPYLRTETRNTYTSRFTEVAMAFASILEHHHHHH | soluble
8 | QYRPMSEKQFSRPVLIVPPQINKYYIFDLSPANSFVQYALKNGLSTFIISWRNPDIRHREWGLSSYVEAAEQAMNICRAISGAREVNLVGACAGGLTIAALLGHLQVKRQTRRVASATYMVSLLDSQIDSPATLFIDEQALEAAKRRSYQRGVLEGSEMSRVFSWMRPNDLIWTYWINNYLLGKSPPPFDILYWNNDTTRLPAALHGDLLDFFKHNPLSHAGGLEVCGTPIDLQKVTVDSFSVAGINDHITPWDSVYRSTLLLGGDRRFVLANSGHVQSILNP | not soluble
9 | MEDTIPAMPQWDKIIYNVLHGSTMKGITSLKKTSVWNEATPVCRESNREAIRRRFTRGLLGRLLQRTPLESCTPVFLPAAQSWPTLEMVPAGALLPGLSEGGEGAKNGSVTTGFFEFTESLPAVGLQRVLPVLPKSAWA | not soluble
10 | MDTAGDTKTTDDGGVVNITYMHRLPDSEGMTLVNDIVAKWNKQHPDIQVKATKFDGKASDMIKKLETDVKSGEAPDLAQVGYAELPEVFTKGLLQDVTQYAEQYKNDFASGPYSLVQVGGKAYGLPQDTGPLVYFYNKAEFEKLGITEIPQTADEFIAAAKTAAAAGKYIMSYQPDEAGNMISGLAGASGGWYKVKGDSWVVNTETDGSKATADFYQQLLDAKAATTNPRWDPSFDASIKDGSLIGTVAAAWEAPLFMTSSGGTGSGEWQVAQLGDWFGNAGKTGPDGGSAVAVLKNSKHPKEAMEFLDWFNTQVPDLVSQGLVPAATTEDAETPSEWSTFFGGQDIMKEFKTANNNMGDFTYMPGFSAVAAKMNETAAKATDGSGKVADIFSDAQTTSVDTLKNFGLSVSE | soluble
11 | MAHHHHHHMAPPSSSACDPRVYLHERVRQHYLEVLPSRWRAVLFRLAKNTQLRQKNDVIVETHLLSEMQADFDLIHALLDEEHRVYREGVACLCSQASNGKSETERWTASRHLLQGMLSCIAMKEILIAHWKNDLVDISPNTLRVYCHACISHPHVSETDIERLLALYAVS | not soluble
12 | MYQVIKMYGDWEPWWFIDGWQDDIIDEQQFSDWQEALDYFNQEWQRMKAIFPSYHSQKNLLATFWEKEDKRWCEDCDEDLQQFHSLLLLKNKDIVPSNNYIPEFEQRNDSPQVAYLCKLNL | not soluble
13 | MIELEVFPHRYLKAETTEKFLNRAYSLSKVQRVVIHGESLPNKVGYGPAKGTPVNHSEKKEITVKGVPVELMLQVGRLWVLLDDESEIEKIEEICKDLFPFGYRLTKGKFLRNDPTVSDFIKYGESAVDDIDKRLLGATDPRSKFDSSVTIIPKSEKNELEHHHHHH | soluble
14 | VKLTDVDFAVEASGMVRAFNQAGVLDVSDVHVAQRLCALAGESDERVALAVAVAVRALRAGSVCVDLLSIARVAGHDDLPWPDPADWLAAVRASPLLADPPVLHLYDDRLLYLDRYWREEEQVCADLLALLTSRRPAGVPDLRRLFPTGFDEQRRAAEIALSQGVTVLTGGPGTGKTTTVARLLALVAEQAELAGEPRPRIALAAPTGKAAARLAEAVRREMAKLDATDRARLGDLHAVTLHRLLGAKPGARFRQDRQNRLPHNVIVVDETSMVSLTLMARLAEAVRPGARLILVGDADQLASVEAGAVLADLVDGFSVRDDALVAQLRTSHRFGKVIGTLAEAIRAGDGDAVLGLLRSGEERIEFVDDEDPAPRLRAVLVPHALRLREAALLGASDVALATLDEHRLLCAHRDGPTGVLHWNRRVQAWLAEETGQPPWTPWYAGRPLLVTANDYGLRVYNGDTGVVLAGPTGLRAVISGASGPLDVATGRLGDVETMHAMTIHKSQGSQVDEVTVLMPQEDSRLLTRELLYTAVTRAKRKVRVVGSEASVRAAIARRAVRASGLRMRLQSTGCG | soluble
15 | GPLGSKELKVTQPEKSVSVAAGDSTVLNCTLTSLLPVGPIKWYRGVGQSRLLIYSFTGEHFPRVTNVSDATKRNNMDFSIRISNVTPEDAGTYYCVKFQKGPSEPDTEIQSGGGTEVYVL | soluble
16 | MSAKMDEQALLALLRELAIDSQRVEHPAIASIEEYYAQGIELPDQGIKNLFLRNRKGTRHYLVLLDERKEADLPGIAEQIGESRLSFASVERLREYLGVELGCVTPFALVNDPQHRVEVLLDDAIRQDQLLGFHPLVNTATECIRYADLLAFLAHTGHEPRLIRA | not soluble
17 | MRKEKIRLEYMLKAGSGNIVWSIISTPSGLETWFADKVIFKDKVFTFYWGKTETRQAEVTNFRVNSFIRFRWLDDEDPKAYFELKMVYNELTSDYMLEVIDWAAPDEVEDTKELWDSEIEKLKRVSGLLEHHHHHH | soluble
18 | MGSDKIHHHHHHVLSTANITMQFGPKPLFENISVKFGGGNRYGLIGANGCGKSTFMKILGGDLEPSSGNVMLEPNIRLGKLRQDQFAYEDVRVLDVVMMGHAEMWAAMTERDAIYANPDATDDDYMHAAELEAKFAEYDGYTAEARAGELLLGIGIAIENHNGPMSNVAPGWKLRVLLAQALFSKPDVLLLDEPTNNLDINSIRWLEDVLNQYNSTMIIISHDRHFLNQVCTHMADMDFGTLKVYPGNYDDYMLASTQARERQQNANAKAKERVADLQDFVRRFSANKSKARQATSRLKMIDKIKIEEFKPSSRQNPFIRFEYEKKLHNIAVVAEKISKKYERTIFNDFSISVQPGERIAIIGENGAGKTTLLRSLLGKLELDHGTVKWAENANIGYMPQDTYEEFPDDVTLMEWIDVYRKEGDDEQMVRGTLGRLLFNADDIRKSVKVLSGGEKGRMIWGKLMLGRHNVLLMDEPTNHMDMESIESLQIALDKFEGTLIFVSHDREFVSGLANRIIEVKTDGTLNDFGGNYEDFLLSQGVQ | not soluble
19 | MGSDKIHHHHHHMTMQPKYRELLLDEDVRRWFENLKAKSVLTATVALRNLGHYCELTGTTPHGILNKARANEKDFRYEFTDFVRKMEKEGKAGSYIARFKKVILSWLKFNDIRLQLTVNIAGENETPTIVNERVPSKEELARILRKATSRGRVAIAIMAFSGLRPESLGDYEGTDGLRLGDLKELKLSDEIQFDKIPATVMVKSKLSKARHHYFSFIGEEGTTYIREYLDERRKQGEELTYESPLLQFDVRGVKKNAFLRTTLVTRDIREAIEQAGLKMRPYVLRAYFSTALDIAESKGLISHPWRQFIMGHKGDIEARYSTNKRLPPDIIDEMRESYNKCTKFLETRISDVSEENARLYLQQQLLSAVGYRQDEIDKMNLAETSTEDFQKLLRDKVAGAMASNGSKQRLVSMNEIEKLLGEGYEFQAVLPNGKAIMKMPF | not soluble
20 | MSHVTAAPNVLAASAGELAAIGSTMRAANAAAAAPTAGVLAAGGDDVSAGIAALFGARAQAYQAISAQAALFHDRFVQILQEGAAAYAMAEAANALPLQKAQGVVSELAQDRTGGTGTGQSRGAGGFGGVGQAGGKGWDGGPIGNGQVGEQHGAGQLGSTDGNPGVAGAAHGSGVSASHGSGATGAAGVADPGGSGAGVGSAAGNGTGAGSADAVGGAGTGRDIVGSVRGDGGVGMASGDGGLSTGAAGASAEGGLMPGFGGAPWVGGHWGLGGEGHSGAIGGVGEQVAPAVATAPAVSPATTSAVAAESGSTPATKAQAMHATTNPGNAAHQGNPADPGNSARRADGGRDEQLLLLPLTSLRGLRHTLKKLSGLRARNGLLTASGDNASGSGRPWDRDQLLRALGLRPPGHE | not soluble
21 | MKQSKIIVAGIGPGSEQDITPAVLAAVREADVVVGYKYYFRFIRDFVRPDAECIDTGMKRERARAEQAFEYAEQGKTVCVISSGDAGIYGMTPLIYEMKRERQSNVEIIALPGISAFQKAASLLGAPIGHDFCVISLSDLMTPWERIERRILAAAQADFVTAVYNPKSDGRYWQIYRLREIFLREGRSPETPVGYVRQAGREEQEIHITTLAAFDPETVDMFTVVLIGNSQTYTFNQNIITPRGYYRETRSEATGIGQDIMIRSFRTIETELKNRDIPLDRKWALLHAIHTTADFEMERLLYTDPNAVASLYDAIRTGNLRTIVTDVTMAASGIRKGALQRLGVEVKCYLNDERVAEMATSKGITRTQAGIRLAVEEHPDALFVFGNAPTALMELCDLIRKEKAQPAGIVAAPVGFVHVEESKHMTKPFTHIPKLIVEGRKGGSNLAATLVNAILCYPDAEQLRPGRDV | soluble
